Experimental findings from the supplement of paper PMC5998384 are described below.

For series [1], the system named is HeLa Kyoto. As to the kind of experiment: thermal stability score vs G1/S (z-score of summed log2 fold changes over temperatures); higher = more thermally stable than in G1/S.
Series [2] relates to HeLa Kyoto. The series is described as follows: solubility change mitosis vs G1/S (difference of NP-40 vs SDS log2 ratios) (log2 ratio difference); higher = more soluble in mitosis.
Series [3] deals with HeLa Kyoto. The series is described as follows: melting temperature (median over replicates), in situ; higher = more thermally stable.
Series [4] relates to HeLa Kyoto. As to the kind of experiment: solubility in G1/S (NP-40 vs SDS abundance) (log2 ratio); higher = more soluble. The following applies: cell cycle stage: G1/S.
Where [5] appears, read: cell cycle stage: early G1 (4.5 h after nocodazole release).
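Throughout, for melting temperature (median over replicates), in situ: HeLa Kyoto cells synchronized by double thymidine or nocodazole block, proteins quantified by TMT10plex mass spectrometry, three independent biological replicates.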
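Throughout, for solubility change mitosis vs G1/S (difference of NP-40 vs SDS log2 ratios): synchronized HeLa Kyoto cells (double thymidine block for G1/S, nocodazole release for mitosis), protein amounts in NP-40 versus SDS lysates quantified by mass spectrometry, three biological replicates.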
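Throughout, for solubility in G1/S (NP-40 vs SDS abundance): HeLa Kyoto cells arrested at G1/S by double thymidine block, proteins quantified by TMT10plex mass spectrometry in mild NP-40 versus SDS extracts, three biological replicates.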
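Throughout, for thermal stability score vs G1/S (z-score of summed log2 fold changes over temperatures): synchronized HeLa Kyoto cells, proteins quantified by TMT10plex mass spectrometry, three biological replicates, mitosis taken 0.5 h after nocodazole release, G1/S directly after double thymidine block.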

Regarding “MFISLWEFFYGHFFRFWMKWLLRQMTGKCELQRIFDTYVGAQRTHRIENSLTYSKNKVLQKATHVVQSEVDKYVDDIMKEKNINPEKDASFKICMKMCLLQITGYKQLYLDVESVRKRPYDSDNLQHEELLMKLWNLLMPTKKLNARISKQWAEIGFQGDDPKTDFRGMGILGLINLVYFSENYTSEAHQILSRSNHPKLGYSYAIVGINLTEMAYSLLKSEALKFHLYNLVPGIPTMEHFHQFYCYLVYEFDKFWFEEEPESIMYFNLYREKFHEKIKGLLLDCNVALTLKV [ELMOD2]”, the thermal stability score in the series on HeLa Kyoto [1] (setting [5]) was -0.373; with HeLa Kyoto [1] (cell cycle stage: mitosis), -0.0202. The “solubility change mitosis (log2)” value in the series with HeLa Kyoto [2] was -0.25. The figures for the melting temperature with HeLa Kyoto [3] (cell cycle stage: G1/S) and in the series on HeLa Kyoto [3] (cell cycle stage: mitosis) were 51.5 °C and 51.3 °C, respectively. In addition, in the series with HeLa Kyoto [4], the “solubility in G1/S (log2)” value is -0.348.

In the case of “MATPAGLERWVQDELHSVLGLSERHVAQFLIGTAQRCTSAEEFVQRLRDTDTLDLSGPARDFALRLWNKVPRKAVVEKPARAAEREARALLEKNRSYRLLEDSEESSEETVSRAGSSLQKKRKKRKHLRKKREEEEEEEASEKGKKKTGGSKQQTEKPESEDEWERTERERLQDLEERDAFAERVRQRDKDRTRNVLERSDKKAYEEAQKRLKMAEEDRKAMVPELRKKSRREYLAKREREKLEDLEAELADEEFLFGDVELSRHERQELKYKRRVRDLAREYRAAGEQEKLEATNRYHMPKETRGQPARAVDLVEEESGAPGEEQRRWEEARLGAASLKFGARDAASQEPKYQLVLEEEETIEFVRATQLQGDEEPSAPPTSTQAQQKESIQAVRRSLPVFPFREELLAAIANHQVLIIEGETGSGKTTQIPQYLFEEGYTNKGMKIACTQPRRVAAMSVAARVAREMGVKLGNEVGYSIRFEDCTSERTVLRYMTDGMLLREFLSEPDLASYSVVMVDEAHERTLHTDILFGLIKDVARFRPELKVLVASATMDTARFSTFFDDAPVFRIPGRRFPVDIFYTKAPEADYLEACVVSVLQIHVTQPPGDILVFLTGQEEIEAACEMLQDRCRRLGSKIRELLVLPIYANLPSDMQARIFQPTPPGARKVVVATNIAETSLTIEGIIYVLDPGFCKQKSYNPRTGMESLTVTPCSKASANQRAGRAGRVAAGKCFRLYTAWAYQHELEETTVPEIQRTSLGNVVLLLKSLGIHDLMHFDFLDPPPYETLLLALEQLYALGALNHLGELTTSGRKMAELPVDPMLSKMILASEKYSCSEEILTVAAMLSVNNSIFYRPKDKVVHADNARVNFFLPGGDHLVLLNVYTQWAESGYSSQWCYENFVQFRSMRRARDVREQLEGLLERVEVGLSSCQGDYIRVRKAITAGYFYHTARLTRSGYRTVKQQQTVFIHPNSSLFEQQPRWLLYHELVLTTKEFMRQVLEIESSWLLEVAPHYYKAKELEDPHAKKMPKKIGKTREELG [DHX16]”, the thermal stability score in the series on HeLa Kyoto [1] (setting [5]) was 1.68; in the series on HeLa Kyoto [1] (cell cycle stage: mitosis), 2.22. Also, the “solubility change mitosis (log2)” value in the series on HeLa Kyoto [2] stood at 0.00704. Besides, the melting temperature in the series on HeLa Kyoto [3] (cell cycle stage: G1/S) is 49.9 °C; in the series with HeLa Kyoto [3] (cell cycle stage: mitosis), 50.8 °C. The “solubility in G1/S (log2)” value in the series on HeLa Kyoto [4] was -0.394.

For “MDEQAGPGVFFSNNHPGAGGAKGLGPLAEAAAAGDGAAAAGAARAQYSLPGILHFLQHEWARFEVERAQWEVERAELQAQIAFLQGERKGQENLKKDLVRRIKMLEYALKQERAKYHKLKYGTELNQGDMKPPSYDSDEGNETEVQPQQNSQLMWKQGRQLLRQYLQEVGYTDTILDVKSKRVRALLGFSSDVTDREDDKNQDSVVNGTEAEVKETAMIAKSELTDSASVLDNFKFLESAAADFSDEDEDDDVDGREKSVIDTSTIVRKKALPDSGEDRDTKEALKEFDFLVTSEEGDNESRSAGDGTDWEKEDQCLMPEAWNVDQGVITKLKEQYKKERKGKKGVKRPNRSKLQDMLANLRDVDELPSLQPSVGSPSRPSSSRLPEHEINRADEVEALTFPPSSGKSFIMGADEALESELGLGELAGLTVANEADSLTYDIANNKDALRKTWNPKFTLRSHFDGIRALAFHPIEPVLITASEDHTLKMWNLQKTAPAKKSTSLDVEPIYTFRAHKGPVLCVVMSSNGEQCYSGGTDGLIQGWNTTNPNIDPYDSYDPSVLRGPLLGHTDAVWGLAYSAAHQRLLSCSADGTLRLWNTTEVAPALSVFNDTKELGIPASVDLVSSDPSHMVASFSKGYTSIFNMETQQRILTLESNVDTTANSSCQINRVISHPTLPISITAHEDRHIKFYDNNTGKLIHSMVAHLEAVTSLAVDPNGLYLMSGSHDCSIRLWNLESKTCIQEFTAHRKKFEESIHDVAFHPSKCYIASAGADALAKVFV [STRN]”, the results for the thermal stability score in the series on HeLa Kyoto [1] (setting [5]) and in the series on HeLa Kyoto [1] (cell cycle stage: mitosis) were 0.0936 and -0.463, respectively. Further, in the series with HeLa Kyoto [2], the “solubility change mitosis (log2)” value was -0.134. The figures for the melting temperature with HeLa Kyoto [3] (cell cycle stage: G1/S) and in the series with HeLa Kyoto [3] (cell cycle stage: mitosis) were 52.4 °C and 52.3 °C, respectively. Also, the “solubility in G1/S (log2)” value with HeLa Kyoto [4] worked out at 0.0488.

Regarding “MTANRDAALSSHRHPGCAQRPRTPTFASSSQRRSAFGFDDGNFPGLGERSHAPGSRLGARRRAKTARGLRGHRQRGAGAGLSRPGSARAPSPPRPGGPENPGGVLSVELPGLLAQLARSFALLLPVYALGYLGLSFSWVLLALALLAWCRRSRGLKALRLCRALALLEDEERVVRLGVRACDLPAWVHFPDTERAEWLNKTVKHMWPFICQFIEKLFRETIEPAVRGANTHLSTFSFTKVDVGQQPLRINGVKVYTENVDKRQIILDLQISFVGNCEIDLEIKRYFCRAGVKSIQIHGTMRVILEPLIGDMPLVGALSIFFLRKPLLEINWTGLTNLLDVPGLNGLSDTIILDIISNYLVLPNRITVPLVSEVQIAQLRFPVPKGVLRIHFIEAQDLQGKDTYLKGLVKGKSDPYGIIRVGNQIFQSRVIKENLSPKWNEVYEALVYEHPGQELEIELFDEDPDKDDFLGSLMIDLIEVEKERLLDEWFTLDEVPKGKLHLRLEWLTLMPNASNLDKVLTDIKADKDQANDGLSSALLILYLDSARNLPSGKKISSNPNPVVQMSVGHKAQESKIRYKTNEPVWEENFTFFIHNPKRQDLEVEVRDEQHQCSLGNLKVPLSQLLTSEDMTVSQRFQLSNSGPNSTIKMKIALRVLHLEKRERPPDHQHSAQVKRPSVSKEGRKTSIKSHMSGSPGPGGSNTAPSTPVIGGSDKPGMEEKAQPPEAGPQGLHDLGRSSSSLLASPGHISVKEPTPSIASDISLPIATQELRQRLRQLENGTTLGQSPLGQIQLTIRHSSQRNKLIVVVHACRNLIAFSEDGSDPYVRMYLLPDKRRSGRRKTHVSKKTLNPVFDQSFDFSVSLPEVQRRTLDVAVKNSGGFLSKDKGLLGKVLVALASEELAKGWTQWYDLTEDGTRPQAMT [ESYT2]”, the figures for the thermal stability score in the series with HeLa Kyoto [1] (setting [5]) and with HeLa Kyoto [1] (cell cycle stage: mitosis) were 0.682 and 0.876, respectively. Besides, the “solubility change mitosis (log2)” value with HeLa Kyoto [2] is -0.0587. Besides, the melting temperature in the series with HeLa Kyoto [3] (cell cycle stage: G1/S) was 51.2 °C; in the series on HeLa Kyoto [3] (cell cycle stage: mitosis) it was 51.5 °C. Further, the “solubility in G1/S (log2)” value in the series on HeLa Kyoto [4] is -0.095.

For “MAGNFDSEERSSWYWGRLSRQEAVALLQGQRHGVFLVRDSSTSPGDYVLSVSENSRVSHYIINSSGPRPPVPPSPAQPPPGVSPSRLRIGDQEFDSLPALLEFYKIHYLDTTTLIEPVSRSRQGSGVILRQEEAEYVRALFDFNGNDEEDLPFKKGDILRIRDKPEEQWWNAEDSEGKRGMIPVPYVEKYRPASASVSALIGGNQEGSHPQPLGGPEPGPYAQPSVNTPLPNLQNGPIYARVIQKRVPNAYDKTALALEVGELVKVTKINVSGQWEGECNGKRGHFPFTHVRLLDQQNPDEDFS [CRK]”, the figures for the thermal stability score with HeLa Kyoto [1] (setting [5]) and in the series on HeLa Kyoto [1] (cell cycle stage: mitosis) were -0.547 and -1.21, respectively. Also, the “solubility change mitosis (log2)” value in the series on HeLa Kyoto [2] was -0.104. In addition, the melting temperature came out at 50.6 °C with HeLa Kyoto [3] (cell cycle stage: G1/S) and 51.5 °C in the series on HeLa Kyoto [3] (cell cycle stage: mitosis). In addition, in the series on HeLa Kyoto [4], the “solubility in G1/S (log2)” value was determined as 0.342.

As to “MSSLIRRVISTAKAPGAIGPYSQAVLVDRTIYISGQIGMDPSSGQLVSGGVAEEAKQALKNMGEILKAAGCDFTNVVKTTVLLADINDFNTVNEIYKQYFKSNFPARAAYQVAALPKGSRIEIEAVAIQGPLTTASL [HRSP12]”, the thermal stability score is -1.03 in the series on HeLa Kyoto [1] (setting [5]) and -1.85 in the series on HeLa Kyoto [1] (cell cycle stage: mitosis). In addition, the “solubility change mitosis (log2)” value in the series with HeLa Kyoto [2] came out at 0.158. The melting temperature with HeLa Kyoto [3] (cell cycle stage: G1/S) is 55.4 °C; in the series on HeLa Kyoto [3] (cell cycle stage: mitosis) it was 55 °C. The “solubility in G1/S (log2)” value in the series on HeLa Kyoto [4] amounted to 0.213.
